Experimental data taken from US20250084142A1 (INTARCIA THERAPEUTICS, published 2025).
Starred links: 1 amine or outer side, 2 acyl side, 3 side chain; linkers in the order of their positions; H or OH if unused. Non-standard residues stand in square brackets, D forms with d. Groups on a side chain read outwards from the residue. No end group written: not given here. *: point of attachment. C20 diacid = O=C(O)CCCCCCCCCCCCCCCCCCC(=O)*; Phe(4-F) = N[C@@H](Cc1ccc(F)cc1)C(=O)O; γGlu = O=C(O)[C@H](CCC(=O)[*:2])N[*:1]; NMeY = CN[C@@H](Cc1ccc(O)cc1)C(=O)O; hPhe = N[C@@H](CCc1ccccc1)C(=O)O

T1: NPY5R
T1 sequence (Q15761 1-445, species assumed, looked up): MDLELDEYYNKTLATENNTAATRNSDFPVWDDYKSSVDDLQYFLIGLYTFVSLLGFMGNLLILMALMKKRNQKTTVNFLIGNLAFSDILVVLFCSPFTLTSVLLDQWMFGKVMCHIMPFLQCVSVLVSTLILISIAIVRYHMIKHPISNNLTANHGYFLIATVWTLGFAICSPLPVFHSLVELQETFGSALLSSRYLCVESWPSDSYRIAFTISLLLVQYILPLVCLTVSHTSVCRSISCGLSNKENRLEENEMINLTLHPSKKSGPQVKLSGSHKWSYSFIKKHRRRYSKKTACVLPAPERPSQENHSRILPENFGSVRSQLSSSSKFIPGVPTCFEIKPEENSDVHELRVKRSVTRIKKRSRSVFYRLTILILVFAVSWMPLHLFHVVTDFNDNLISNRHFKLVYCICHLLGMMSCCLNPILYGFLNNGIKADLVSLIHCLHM

T2: NPY2R
T2 sequence (P49146 1-381, species assumed, looked up): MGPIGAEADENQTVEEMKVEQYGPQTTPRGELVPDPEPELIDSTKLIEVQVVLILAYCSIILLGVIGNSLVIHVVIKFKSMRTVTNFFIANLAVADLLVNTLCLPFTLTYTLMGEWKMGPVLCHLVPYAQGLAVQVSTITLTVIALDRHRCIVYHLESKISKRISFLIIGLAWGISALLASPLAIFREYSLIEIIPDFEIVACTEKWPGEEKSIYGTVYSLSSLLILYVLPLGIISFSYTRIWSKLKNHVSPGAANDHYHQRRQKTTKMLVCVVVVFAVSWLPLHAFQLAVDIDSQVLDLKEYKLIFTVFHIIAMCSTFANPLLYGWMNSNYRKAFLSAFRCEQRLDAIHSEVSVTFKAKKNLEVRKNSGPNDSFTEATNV


Columns and labels:
[1] = target: T1, NPY5R; assay: cell-based or functional assay
[2] = target: T2, NPY2R; assay: cell-based or functional assay

Binder	NPY5R pEC50 [1]	NPY2R pEC50 [2]
K([γGlu-γGlu-C20 diacid])PKPEAPGKDASPEEWNRYYADARHYLNWLTRQR[NMeY]-NH2 (N-terminus assumed; SMILES CC(C)C[C@H](NC(=O)[C@H](Cc1ccc(O)cc1)NC(=O)[C@H](Cc1c[nH]cn1)NC(=O)[C@H](CCCNC(=N)N)NC(=O)[C@H](C)NC(=O)[C@H](CC(=O)O)NC(=O)[C@H](C)NC(=O)[C@H](Cc1ccc(O)cc1)NC(=O)[C@H](Cc1ccc(O)cc1)NC(=O)[C@H](CCCNC(=N)N)NC(=O)[C@H](CC(N)=O)NC(=O)[C@H](Cc1c[nH]c2ccccc12)NC(=O)[C@H](CCC(=O)O)NC(=O)[C@H](CCC(=O)O)NC(=O)[C@@H]1CCCN1C(=O)[C@H](CO)NC(=O)[C@H](C)NC(=O)[C@H](CC(=O)O)NC(=O)[C@H](CCCCN)NC(=O)CNC(=O)[C@@H]1CCCN1C(=O)[C@H](C)NC(=O)[C@H](CCC(=O)O)NC(=O)[C@@H]1CCCN1C(=O)[C@H](CCCCN)NC(=O)[C@@H]1CCCN1C(=O)[C@@H](N)CCCCNC(=O)CC[C@H](NC(=O)CC[C@H](NC(=O)CCCCCCCCCCCCCCCCCCC(=O)O)C(=O)O)C(=O)O)C(=O)N[C@@H](CC(N)=O)C(=O)N[C@@H](Cc1c[nH]c2ccccc12)C(=O)N[C@@H](CC(C)C)C(=O)N[C@H](C(=O)N[C@@H](CCCNC(=N)N)C(=O)N[C@@H](CCC(N)=O)C(=O)N[C@@H](CCCNC(=N)N)C(=O)N(C)[C@@H](Cc1ccc(O)cc1)C(N)=O)[C@@H](C)O) [Compound A4]	7.3 -Log(EC50, M)	8.7 -Log(EC50, M)
PKPEAPK([γGlu-γGlu-C20 diacid])KDASPEELNRYYADARHYLNWLTRQR[NMeY]-NH2 (N-terminus assumed; SMILES CC(C)C[C@H](NC(=O)[C@H](Cc1ccc(O)cc1)NC(=O)[C@H](Cc1c[nH]cn1)NC(=O)[C@H](CCCNC(=N)N)NC(=O)[C@H](C)NC(=O)[C@H](CC(=O)O)NC(=O)[C@H](C)NC(=O)[C@H](Cc1ccc(O)cc1)NC(=O)[C@H](Cc1ccc(O)cc1)NC(=O)[C@H](CCCNC(=N)N)NC(=O)[C@H](CC(N)=O)NC(=O)[C@H](CC(C)C)NC(=O)[C@H](CCC(=O)O)NC(=O)[C@H](CCC(=O)O)NC(=O)[C@@H]1CCCN1C(=O)[C@H](CO)NC(=O)[C@H](C)NC(=O)[C@H](CC(=O)O)NC(=O)[C@H](CCCCN)NC(=O)[C@H](CCCCNC(=O)CC[C@H](NC(=O)CC[C@H](NC(=O)CCCCCCCCCCCCCCCCCCC(=O)O)C(=O)O)C(=O)O)NC(=O)[C@@H]1CCCN1C(=O)[C@H](C)NC(=O)[C@H](CCC(=O)O)NC(=O)[C@@H]1CCCN1C(=O)[C@H](CCCCN)NC(=O)[C@@H]1CCCN1)C(=O)N[C@@H](CC(N)=O)C(=O)N[C@@H](Cc1c[nH]c2ccccc12)C(=O)N[C@@H](CC(C)C)C(=O)N[C@H](C(=O)N[C@@H](CCCNC(=N)N)C(=O)N[C@@H](CCC(N)=O)C(=O)N[C@@H](CCCNC(=N)N)C(=O)N(C)[C@@H](Cc1ccc(O)cc1)C(N)=O)[C@@H](C)O) [Compound A63]	6 -Log(EC50, M)	7.5 -Log(EC50, M)
PKPEAPGK([γGlu-γGlu-C20 diacid])DASPEEWNRYYADLRHYLNWLTRQR[hPhe]-NH2 [Compound A61]	8.3 -Log(EC50, M)	10 -Log(EC50, M)
PKPEAPGK([γGlu-γGlu-C20 diacid])DASPEEWNRYYADLRHYLNWLTRQR[Phe(4-F)]-NH2 [Compound A60]	8.6 -Log(EC50, M)	10.3 -Log(EC50, M)

Further lines, results first:

NPY5R pEC50 [1]	NPY2R pEC50 [2]	Binder
8.5 -Log(EC50, M)	10.3 -Log(EC50, M)	PKPEAPGK([γGlu-γGlu-C20 diacid])DASPEKWNRYYKDLRHYLNWLTRQRF-NH2 [Compound A67]
7.9 -Log(EC50, M)	8.6 -Log(EC50, M)	PKPEAPK([γGlu-γGlu-C20 diacid])KDASPEELNRYYADARHYLNWLTRQRF-NH2 (N-terminus assumed; SMILES CC(C)C[C@H](NC(=O)[C@H](Cc1ccc(O)cc1)NC(=O)[C@H](Cc1c[nH]cn1)NC(=O)[C@H](CCCNC(=N)N)NC(=O)[C@H](C)NC(=O)[C@H](CC(=O)O)NC(=O)[C@H](C)NC(=O)[C@H](Cc1ccc(O)cc1)NC(=O)[C@H](Cc1ccc(O)cc1)NC(=O)[C@H](CCCNC(=N)N)NC(=O)[C@H](CC(N)=O)NC(=O)[C@H](CC(C)C)NC(=O)[C@H](CCC(=O)O)NC(=O)[C@H](CCC(=O)O)NC(=O)[C@@H]1CCCN1C(=O)[C@H](CO)NC(=O)[C@H](C)NC(=O)[C@H](CC(=O)O)NC(=O)[C@H](CCCCN)NC(=O)[C@H](CCCCNC(=O)CC[C@H](NC(=O)CC[C@H](NC(=O)CCCCCCCCCCCCCCCCCCC(=O)O)C(=O)O)C(=O)O)NC(=O)[C@@H]1CCCN1C(=O)[C@H](C)NC(=O)[C@H](CCC(=O)O)NC(=O)[C@@H]1CCCN1C(=O)[C@H](CCCCN)NC(=O)[C@@H]1CCCN1)C(=O)N[C@@H](CC(N)=O)C(=O)N[C@@H](Cc1c[nH]c2ccccc12)C(=O)N[C@@H](CC(C)C)C(=O)N[C@H](C(=O)N[C@@H](CCCNC(=N)N)C(=O)N[C@@H](CCC(N)=O)C(=O)N[C@@H](CCCNC(=N)N)C(=O)N[C@@H](Cc1ccccc1)C(N)=O)[C@@H](C)O) [Compound A64]
7.9 -Log(EC50, M)	9.7 -Log(EC50, M)	PKPEAPGK([γGlu-γGlu-C20 diacid])DASPEEWNRKYKDLRHYLNWLTRQRF-NH2 [Compound A68]
8.3 -Log(EC50, M)	10.3 -Log(EC50, M)	PKPEAPGK([γGlu-γGlu-C20 diacid])DKSPEEWNRYYKDLRHYLNWLTRQRF-NH2 [Compound A66]
8.7 -Log(EC50, M)	10.4 -Log(EC50, M)	PKPEKPGKDASPK([γGlu-γGlu-C20 diacid])EWNRYYKDLRHYLNWLTRQRF-NH2 (N-terminus assumed; SMILES CC(C)C[C@H](NC(=O)[C@H](CC(=O)O)NC(=O)[C@H](CCCCN)NC(=O)[C@H](Cc1ccc(O)cc1)NC(=O)[C@H](Cc1ccc(O)cc1)NC(=O)[C@H](CCCNC(=N)N)NC(=O)[C@H](CC(N)=O)NC(=O)[C@H](Cc1c[nH]c2ccccc12)NC(=O)[C@H](CCC(=O)O)NC(=O)[C@H](CCCCNC(=O)CC[C@H](NC(=O)CC[C@H](NC(=O)CCCCCCCCCCCCCCCCCCC(=O)O)C(=O)O)C(=O)O)NC(=O)[C@@H]1CCCN1C(=O)[C@H](CO)NC(=O)[C@H](C)NC(=O)[C@H](CC(=O)O)NC(=O)[C@H](CCCCN)NC(=O)CNC(=O)[C@@H]1CCCN1C(=O)[C@H](CCCCN)NC(=O)[C@H](CCC(=O)O)NC(=O)[C@@H]1CCCN1C(=O)[C@H](CCCCN)NC(=O)[C@@H]1CCCN1)C(=O)N[C@@H](CCCNC(=N)N)C(=O)N[C@@H](Cc1c[nH]cn1)C(=O)N[C@@H](Cc1ccc(O)cc1)C(=O)N[C@@H](CC(C)C)C(=O)N[C@@H](CC(N)=O)C(=O)N[C@@H](Cc1c[nH]c2ccccc12)C(=O)N[C@@H](CC(C)C)C(=O)N[C@H](C(=O)N[C@@H](CCCNC(=N)N)C(=O)N[C@@H](CCC(N)=O)C(=O)N[C@@H](CCCNC(=N)N)C(=O)N[C@@H](Cc1ccccc1)C(N)=O)[C@@H](C)O) [Compound A70]
8.3 -Log(EC50, M)	10 -Log(EC50, M)	PKPEAPGK([γGlu-γGlu-C20 diacid])DASPEEWNRYKKDLRHYLNWLTRQRF-NH2 [Compound A69]
